In article PMC11198818, “Positive charges promote the recognition of proteins by the chaperone SlyD from Escherichia coli” (PLOS ONE, 2024):
Substitutions are numbered along the chain they refer to.

What was measured:
Experiment in all cases: ITC; VP-ITC (MicroCal), 30°C, 10 mM potassium phosphate buffer pH 7.6 or 7.8; SlyD or its variant 30 uM in the calorimetric cell, HiPIP precursor (RR-HiPIP) injected: 100 uM, 2x 22 injections of 10 uL (Fig 4); 200 uM, 23 injections of 10 uL (Fig 3)
Conditions in all cases: both partners purified
[1] = biological target: T1, SlyD D101A, C-terminally hexahistidine-tagged (E. coli, UniProt P0A9K9 1-196, D101A)
T1 construct: FKBP-type peptidyl-prolyl cis-trans isomerase SlyD, E. coli; the tag is fused to the C-terminal domain; not shown: His6, C-terminal, kept
T1 sequence: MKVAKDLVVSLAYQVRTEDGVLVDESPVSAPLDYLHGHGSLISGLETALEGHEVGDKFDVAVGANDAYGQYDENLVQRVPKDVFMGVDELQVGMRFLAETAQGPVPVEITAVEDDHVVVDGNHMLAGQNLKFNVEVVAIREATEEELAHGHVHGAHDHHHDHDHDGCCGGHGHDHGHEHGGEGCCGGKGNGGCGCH

[2] = biological target: T2, SlyD E113A, C-terminally hexahistidine-tagged (E. coli, UniProt P0A9K9 1-196, E113A)
T2 construct: FKBP-type peptidyl-prolyl cis-trans isomerase SlyD, E. coli; the tag is fused to the C-terminal domain; not shown: His6, C-terminal, kept
T2 sequence: T1 sequence with A101D, E113A

[3] = biological target: T3, SlyD D115A, C-terminally hexahistidine-tagged (E. coli, UniProt P0A9K9 1-196, D115A)
T3 construct: FKBP-type peptidyl-prolyl cis-trans isomerase SlyD, E. coli; the tag is fused to the C-terminal domain; not shown: His6, C-terminal, kept
T3 sequence: T1 sequence with A101D, D115A

[4] = biological target: T4, SlyD Y68S, C-terminally hexahistidine-tagged (E. coli, UniProt P0A9K9 1-196, Y68S)
T4 construct: FKBP-type peptidyl-prolyl cis-trans isomerase SlyD, E. coli; the tag is fused to the C-terminal domain; not shown: His6, C-terminal, kept
T4 sequence: T1 sequence with Y68S, A101D

[5] = biological target: T5, SlyD E73A, C-terminally hexahistidine-tagged (E. coli, UniProt P0A9K9 1-196, E73A)
T5 construct: FKBP-type peptidyl-prolyl cis-trans isomerase SlyD, E. coli; the tag is fused to the C-terminal domain; not shown: His6, C-terminal, kept
T5 sequence: T1 sequence with E73A, A101D

[6] = biological target: T6, SlyD E108A, C-terminally hexahistidine-tagged (E. coli, UniProt P0A9K9 1-196, E108A)
T6 construct: FKBP-type peptidyl-prolyl cis-trans isomerase SlyD, E. coli; the tag is fused to the C-terminal domain; not shown: His6, C-terminal, kept
T6 sequence: T1 sequence with A101D, E108A

[7] = biological target: T7, SlyD F96N, C-terminally hexahistidine-tagged (E. coli, UniProt P0A9K9 1-196, F96N)
T7 construct: FKBP-type peptidyl-prolyl cis-trans isomerase SlyD, E. coli; the tag is fused to the C-terminal domain; not shown: His6, C-terminal, kept
T7 sequence: T1 sequence with F96N, A101D

B1: HiPIP precursor (RR-HiPIP) from Allochromatium vinosum (natural protein)
chain: MSDKPISKSRRDAVKVMLGTAAAIPMINLVGFGTARASAPANAVAADDATAIALKYNQDATKSERVAAARPGLPPEEQHCANCQFMQADAAGATDEWKGCQLFPGKLINVNGWCASWTLKAG
modifications: HiPIP precursor; fully folded, [4Fe-4S] cluster presumed; signal peptide retained
stoichiometry N [1]: 0.604 ± 0.012 | Kd [2]: 490 ± 70 nM | stoichiometry N [2]: 0.616 ± 0.008 | Kd [3]: 270 ± 20 nM | stoichiometry N [3]: 0.541 ± 0.026 | stoichiometry N [4]: 0.462 ± 0.003 | Kd [5]: 320 ± 20 nM | stoichiometry N [5]: 0.616 ± 0.003 | stoichiometry N [6]: 0.569 ± 0.015 | Kd [7]: 8850 ± 2780 nM | stoichiometry N [7]: 0.628 ± 0.036
